Measured values published in patent US9175077B2, “Nucleic acids encoding biologically active polypeptides derived from a novel early stage pregnancy factor designated maternin (MA)” (NOBEL BIOSCIENCES LLC, priority 1999, dated 2015).
Like-named read-outs stand apart in the source and are kept apart here.

B1: β-hCG: β-chain of human chorionic gonadotropin, AA 1-145 (SEQ ID NO: 1) (protein, listed as Homo sapiens)
chain: SKEPLRPRCRPINATLAVEKEGCPVCITVNTTICAGYCPTMTRVLQGVLPALPQVVCNYRDVRFESIRLPGCPRGVNPVVSYAVALSCQCALCRRSTTDCGGPKDHPLTCDDPRFQDSSSSKAPPPSLPSPSRLPGPSDTPILPQ

How the values were obtained:
human tumor cells = format: cell-based; conditions: controls at equimolar or 5 to 10× greater concentrations
Protocol: The anti-tumor activities of MA were assessed in several in vitro and in vivo systems using published methods.^166 In vitro studies were with a wide variety of human tumor cell lines as well as short-term cultures of cells from biopsy samples obtained from tumors. The assays included effects of MA on colony formation, cell number and viability (trypan blue), and apoptosis. Four measures of microscopy were used. In vivo studies included the effects of MA on tumors induced in immunodeficient mice by xenotransplanted various human neoplastic cells, spontaneous neoplasms of immuno-competent mice and rats, and a few standard tumors in immuno-competent mice. Representative examples are presented.
Cells (5×10^5/ml) were seeded in modified Eagle's medium supplemented with 10% FCS, 10% conditioned medium form PHA stimulated human lymphocytes, 2 mM glutamine in 0.8% V/V methylcellulose with or without various treatments in a final volume of 1.0 ml. Then 0.1 ml aliquots were seeded in 96 well flat bottom microtest plates and incubated at 37° C. in 5% CO2 in air for 7 days. Aggregates containing 50 cells or more were scored as colonies.
5×10^5 cells were seeded in triplicate on 24 gelatin coated wells in conditions as described for Panel A and treated with the indicated test materials. After 3 days the cells were dislodged from their monolayers by gentle pipetting with cell dissociation buffer (Life Technologies), counted after trypan blue staining and aliquots examined for Annexin V staining by indirect IFA […].
Studies of the anti-tumor cell effects of MA were extended to other carcinomas, melanoma, some hematopoietic tumors, and carcinomas of the colon, prostate, breast, lung, brain, pancreas, and kidney-using cell lines from these tumors. […] Many more types of tumor cells were studied utilizing other assays (see below).

[1] = system: primary human tumor cells; experiment: Short-term cultured primary human tumor cells, growth and apoptosis; format: cell-based; conditions: 200 ng/ml; 3 days culture; 10% serum
From the text: Because cell lines might be more susceptible to growth inhibition and apoptosis, the effects of MA on short-term cultured human tumor cells were investigated. The cells were obtained from biopsied specimens and immediately cultured (primary cultures). The results were similar to the results with tumor cell lines. […] FIG. 3, Panels A and B are representative results with primary breast and prostate carcinomas respectively. These pro-apoptotic effects of MA on human tumor cells were with 10% serum rather than the lower concentrations sometimes used to make cells more susceptible to apoptosis.
More extensive studies of primary human tumor cells were carried out utilizing confocal microscopy.
With the exception of the kidney carcinoma, which was a biopsy sample direct from the tumor, the samples were from pleural effusions which developed after metastasis to the lung. The breast, prostate, and colon carcinomas were freshly obtained and immediately cultured, whereas the lung and kidney carcinomas went through 22 and 18 passes respectively before they were used in these studies. All cells were examined after 3 days culture in the presence or absence of MA (200 ng/ml) or other treatments. […]

HIV-1 gene expression = experiment: HIV-1 transgenic mice, pups feeding from treated mothers; format: in vivo
From the text: The transgenic mice contain 5.1 kb of the HIV-1 proviral genome, lacking gag and pol genes and 2.3 kb of vector.^172 The newly developed transgenic rat contains the same HIV-1 sequences and vector.
Twenty-four hours after birth the mothers were either inoculated subcutaneously daily for 10 days or received an implanted osmotic pump delivering 30-150 pmoles of either native or synthetic MA or pMA. Various control polypeptides were used at equimolar or vast molar excess. The newborn pups were then allowed to feed from the foster mother breast milk over the entire period. Since the animals are at risk from needle inoculation, breastfeeding was the chosen route for MA administration.
In these experiments total RNA was extracted from samples of skin RNA206 10 days after birth of MA treated and untreated mice. One ug of RNA was reverse transcribed into cDNA using random hexamer primer and […] reverse transcriptase (Life Technologies, Inc.) in a final vol. Of 30 ul. Three ul of each reaction was used for PCR amplification of the HIV-1 gene sequences (env, tat, nef, and rev) as described […], and glyceraldehyde 3-phosphate dehydrogenase (GAPDH) was amplified from each sample for normalization. After 25 cycles, 10% of the products were resolved by electrophoresis on 2% agarose gels, transferred to nitrocellulose membranes by Southern blotting, and hybridized to fluorescein isthiocyanate-labeled oligonucleotide probes complementary to internal sequences of the amplicons […]. Bound probes were detected by chemiluminescence (Amersham) and relative mRNA levels determined by densitrometry after normalization with GAPDH mRNA levels.

[2] = Lethally irradiated rats and mice; conditions: higher dose, treated at time of radiation, 3×/week for 4 weeks; over 100 days
Protocol: In order to determine in vivo relevance of the prohematopoietic effects of MA treated rats and mice under several conditions of bone marrow suppression. First, the effects of native MA and pMA and of the synthetic 15-mer MAS1 were treated for their capacity to reduce or prevent the effects of lethal doses of gamma irradiation. […] MA, pMA, MAS1, and various control polypeptides were given 48 and 24 hrs before, during, or 24 hrs after radiation. The animals treated prior to radiation received either 100 ng vs. 1 ug (rats) or 50 ng vs. 500 ng (mice) as 2 subcutaneous injections.
It is not yet possible to determine the precise molar dose of pMA because of less certainty on its full-length sequence.
To ascertain that the MA effect did promote hematopoiesis in these animals we examined the bone marrow for cellularity and colony formation and determined peripheral blood counts.

[3] = Lethal dose taxol in Sprague-Dawley rats; format: in vivo
Protocol: Sprague-Dawley rats were given taxol in large lethal doses, 4.5 mg in one I.P. inoculation. […] Bone marrow suppression can also be a side effect of the clinical use of taxol.^179 As in the radiation experiments, either MA, pMA, MAS1, or various polypeptide controls were given subcutaneously only in two doses 24 and 48 hrs before taxol treatment or were given 3×/week for 4 weeks. […]

[4] = Summary of active and inactive peptides / overall biological activities
[5] = system: human carcinoma and sarcoma cells (PC3, KS Y-1); experiment: Xenotransplanted human tumors in immunodeficient mice; format: in vivo; conditions: controls at equivalent and higher molar concentrations
Protocol: In the first set of experiments, MA was tested against tumors formed by xenotransplantation of various human carcinoma and sarcoma cells in immunodeficient mice. […] […] Three different synthetic forms of MA were used: full length (MAS3) and the previously described MAS1 and MAS2 (Panel C).

HIV-1 = conditions: controls at similar, equimolar or higher concentrations
Protocol: Virus (MOI of 0.001) was added to 10^6 cells in RPMI-1640 with 10% FCS. One hour later the various polypeptides were added once. The cells cultured for 3 days with 5 ug PHA and 20 i.m. of II-2/ml at 37°, after which virus was estimated by determining p24 (HIV-1) or p27 (SIV) (Organon-Teknika).
The effect of native and synthetic MA on HIV-1 infection in vitro was evaluated using PHA and II-2 stimulated primary peripheral blood cells (PBMC), CD4+ T-cells enriched fractions from PBMC, and CD14+ macrophage enriched fractions. Infection was with HIV-1 IIIB (PBMC and CD4+ T-cells), HIV-1 Ba-L (macrophages), and two primary HIV-1 isolates not passaged in any cell line (PBMC).

[6] = system: hematopoietic progenitors (CFU-GEMM, BFU-e, CFU-GM, T-CFC); experiment: Hematopoietic colony formation assays; format: cell-based, human
From the text: Hematopoietic colony formation assays with bone marrow or cord blood of normal human volunteers and bone marrow of monkeys, rats, and mice were utilized. The assays are conventional measurements of the number of progenitors for erythrocytes, granulocytes, macrophages, platelets, and T-cells. The culture conditions included growth factors that would give near optimum growth for the particular lineage. These factors included II-3, PHA-lymphocyte conditioned medium, erythropoietin (EPO), II-6, and GM-CSF. The number of colonies developing in methylcellulose reflects the number of progenitor cells, and the percent increase is a measure of the effect of different polypeptides to increase colony number above the maximum obtained with the indicated known growth factors.
The latter is a less conventional assay, and details on the methods involved are described elsewhere.^178

hCG receptor = molecular target: T1, hCG receptor (Homo sapiens, UniProt P22888); conditions: cited from earlier work
T1 construct: host or cells: unspecified cells

HIV = conditions: higher doses increased viral production; cited from earlier work

T1 sequence (P22888 27-699): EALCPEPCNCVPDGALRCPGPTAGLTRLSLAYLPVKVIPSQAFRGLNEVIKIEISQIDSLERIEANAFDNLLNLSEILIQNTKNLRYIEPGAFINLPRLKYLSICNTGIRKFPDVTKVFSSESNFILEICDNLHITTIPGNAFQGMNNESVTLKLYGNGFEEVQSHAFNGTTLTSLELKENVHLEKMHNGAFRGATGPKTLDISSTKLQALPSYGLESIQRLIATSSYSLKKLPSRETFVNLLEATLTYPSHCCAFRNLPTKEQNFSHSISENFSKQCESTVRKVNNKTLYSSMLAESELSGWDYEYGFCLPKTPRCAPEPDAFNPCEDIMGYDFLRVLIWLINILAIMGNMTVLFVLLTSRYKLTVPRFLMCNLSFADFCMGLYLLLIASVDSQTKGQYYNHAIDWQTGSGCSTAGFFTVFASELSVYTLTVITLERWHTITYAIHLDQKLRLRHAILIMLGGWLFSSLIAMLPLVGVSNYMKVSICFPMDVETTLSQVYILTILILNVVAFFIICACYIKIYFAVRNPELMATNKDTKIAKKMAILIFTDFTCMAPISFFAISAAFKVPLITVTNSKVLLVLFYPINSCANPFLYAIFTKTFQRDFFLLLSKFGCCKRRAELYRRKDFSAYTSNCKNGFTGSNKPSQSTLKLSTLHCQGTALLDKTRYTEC

| Molecule | inhibition of growth / induction of apoptosis of neoplastic cells (human tumor cells) | growth inhibition and apoptosis of primary human tumor cells [1] | weight over the ten day period (HIV-1 gene expression; 30-150 pmoles) | survival / development of pups (qualitative) (HIV-1 gene expression; mothers treated, pups breast fed) | HIV-1 viral expression in tissues (HIV-1 gene expression; mouse, in vivo) | survival [2] [%] | survival of pretreated animals ([3]; low dose, two doses 24 and 48 hrs before taxol) | survival maintained to day 80 ([3]; therapy maintained 28 days, high dose (1000 ng)) [%] | survival maintained to day 80 ([3]; therapy maintained 28 days, low dose (100 ng)) | survival on day 5 ([3]; therapy maintained 28 days, low or high dose) [%] | biological activities in vitro or in vivo in the experimental systems described [4] | effect on xenotransplanted tumor (qualitative) [5] | inhibition of HIV replication (qualitative) (HIV-1) | inhibition of HIV replication (qualitative) (HIV-1; listed as rβ-hCG) | mice dead by day 10 (HIV-1 gene expression; mouse, in vivo) | hematopoietic effects in vivo and in vitro [6] | effect on colony number (qualitative) ([6]; equimolar or higher concentrations) | effect on survival (qualitative) ([3]; even at high doses) | binding to the hCG receptor (hCG receptor) | doses reducing HIV production in monocytes (HIV) [µg/mL] |
| --- | --- | --- | --- | --- | --- | --- | --- | --- | --- | --- | --- | --- | --- | --- | --- | --- | --- | --- | --- | --- |
| pMA: natural peptide 38 amino acids in length, β-hCG 55-92 (SEQ ID NO: 3) (VVCNYRDVRFESIRLPGCPRGVNPVVSYAVALSCQCAL; listed as Homo sapiens) | induce apoptotic death | effective | quadrupled their weight | survived | marked inhibition of viral expression | 100 | Sixty-percent | ~80 | about 60% | 100 |  |  |  |  |  |  |  |  |  |  |
| B1 | no inhibition of growth or induction of apoptosis |  |  |  | high expression |  |  |  |  |  | no activity | no effect | No inhibition | no effect | 10 of 10 | None | no significant effect above background | no effect | neither β-hCG or any of its degradation products significantly bind | ≤ 10 |
